In patent US20220378931A1 (Eli Lilly, published 2022):
Numbering of substitutions follows the chain as printed. Blank lines part the entries; values can stand above or below the binder they belong to.

Tests used:
[1] = biological target: T1, human insulin receptor isoform A with C-terminal C9 tag (human, UniProt P06213 28-1382); experiment: 125I-insulin competition SPA, hIR-A membranes, 0.1% BSA
T1 construct: membranes of stably transfected HEK293 cells; also called hIR-A; human IR-A
Protocol: (§1) The assays are performed with a SPA method using polyvinyltoluene (PVT) wheat germ agglutinin-coupled SPA beads (Perkin Elmer). Assay buffer contains 50 mM Tris-HCl, pH 7.5, 150 mM NaCl and either A) 0.1% w/v fatty-acid free BSA; B) 0.1% w/v fatty-acid free human serum albumin (HSA); C) 0.1% w/v rat serum albumin (RSA); or D) 0.001% Nonidet P-40 Substitute (NP-40, Roche Diagnostics). Ten-point concentration response curves using three-fold serial dilutions of test samples or controls are prepared in Assay Buffer using a Freedom/Evo robot (Tecan).
(§2) Percent specific inhibition (y-axis) is plotted versus the log concentration of compound (x-axis). […] Reported Ki values are shown as the geometric mean with the standard error (Delta Method Standard Error) and the number of independent replicate determinations used to calculate the geometric mean indicated by n.

[2] = biological target: T1, human insulin receptor isoform A with …; experiment: 125I-insulin competition SPA, hIR-A membranes, 0.001% NP-40
Protocol: as §1, §2

B1: INS Analog 8 (other)
chain: FVSQHLCGSHLVEALYLVCGERGFHYTPKTGGGGGGGIVEQCCTSICSLYQLENYCGPGPAPGPAPGPAPGPAPGPAPGPAPGPAPGPAEVQLLESGGGLVQPGGSLRLSCAASGRYIDETAVAWFRQAPGKEREFVAGIGGGVDITYYADSVKGRFTISRDNSKNTLYLQMNSLRPEDTAVYYCAARPGRPLITSKVADLYPYWGQGTLVTVSSPP
notes: single-chain insulin B-L2-A-L1-VHH fusion; also called Ex. 8
Ki [1]: 139 nM
Ki [2]: 47.3 nM

B4: INS Analog 10 (other)
chain: B1 chain with Y16H, H25F
notes: single-chain insulin B-L2-A-L1-VHH fusion; also called Ex. 10
Ki [1]: 146 nM
Ki [2]: 20.1 nM

B6: INS Analog 15 (other)
chain: B1 chain with Y16F, H25F
notes: single-chain insulin B-L2-A-L1-VHH fusion; also called Ex. 15
Ki [1]: 39.2 nM
Ki [2]: 13.1 nM

B7: INS Analog 9 (other)
chain: B1 chain with T44H
notes: single-chain insulin B-L2-A-L1-VHH fusion; also called Ex. 9
Ki [1]: 11.7 nM
Ki [2]: 6.67 nM

B10: INS Analog 3 (other)
chain: FVNQHLCGAHLVEALYLVCGERGFFYTPKTGGGGGGGIVEQCCTSICSLYQLENYCGPGPAPGPAPGPAPGPAPGPAPGPAPGPAPGPAEVQLLESGGGLVQPGGSLRLSCAASGRTVSSTAVAWFRQAPGKEREFVAGIGGSVDITYYADSVKGRFTISRDNSKNTLYLQMNSLRPEDTAVYYCAVRPGRPLITSRDANLYDYWGQGTLVTVSS
notes: single-chain insulin B-L2-A-L1-VHH fusion; also called Ex. 3
Ki [1]: 45.2 nM

B11: INS Analog 5 (other)
chain: B10 chain with A9S, Y16H
notes: single-chain insulin B-L2-A-L1-VHH fusion; also called Ex. 5
Ki [1]: 57 nM

B12: INS Analog 6 (other)
chain: B10 chain with A9S, F25H
notes: single-chain insulin B-L2-A-L1-VHH fusion; also called Ex. 6
Ki [1]: 65.5 nM

B13: INS Analog 4 (other)
chain: B10 chain with A9S, Y16E
notes: single-chain insulin B-L2-A-L1-VHH fusion; also called Ex. 4
Ki [1]: 591 nM

The remaining lines, values ahead:

Ki [1]: 51.3 nM
Ki [2]: 18.5 nM
B2: INS Analog 20 (other)
chain: B1 chain with H25F, A61Q, A65Q, A69Q, A73Q, A77Q, A81Q, A85Q, A89Q
notes: single-chain insulin B-L2-A-L1-VHH fusion; also called Ex. 20

Ki [1]: 46 nM
Ki [2]: 43.1 nM
B3: INS Analog 16 (other)
chain: B1 chain with Y16W, H25F
notes: single-chain insulin B-L2-A-L1-VHH fusion; also called Ex. 16

Ki [1]: 59.7 nM
Ki [2]: 17.1 nM
B5: INS Analog 22 (other)
chain: B1 chain with Y16H, T44H, A61Q, A65Q, A69Q, A73Q, A77Q, A81Q, A85Q, A89Q
notes: single-chain insulin B-L2-A-L1-VHH fusion; also called Ex. 22

Ki [1]: 41.8 nM
Ki [2]: 18.5 nM
B8: INS Analog 19 (other)
chain: FVSQHLCGSHLVEALYLVCGERGFFYTPKTGGGGGGGIVEQCCTSICSLYQLENYCGGGGGQGGGGQGGGGQGGGGQGGGGQEVQLLESGGGLVQPGGSLRLSCAASGRYIDETAVAWFRQAPGKEREFVAGIGGGVDITYYADSVKGRFTISRDNSKNTLYLQMNSLRPEDTAVYYCAARPGRPLITSKVADLYPYWGQGTLVTVSSPP
notes: single-chain insulin B-L2-A-L1-VHH fusion; also called Ex. 19

Ki [1]: 28 nM
Ki [2]: 8.3 nM
B9: INS Analog 21 (other)
chain: B8 chain with Y16H, F25H, T44H
notes: single-chain insulin B-L2-A-L1-VHH fusion; also called Ex. 21
